Reference: US20090269831A1 (REGENTS OF THE UNIVERSITY OF MINNESOTA, published 2009)

Tests used:
[1] = molecular target: the molecule itself; assay: size exclusion, Superdex 75 (self-association)
Method: GST-based constructs were expressed in E. coli strain BL21 DE3 RIL (Stratagene). Unlabeled proteins were produced by overnight expression at 17° C. in LB medium containing 1 mM IPTG and 200 μg/mL ampicillin. Isotope-labeled proteins were produced by overnight expression at 17° C. in M9 supplemented with ¹⁵NH₄Cl, ¹³C-labeled D-glucose and ²H water as previously described by Devany et al., Protein Sci. 13, 2252-259 (2004). Proteins were purified by sonicating cell pellets in lysis buffer [100 mM NaCl, 50 mM Na₂HPO₄/NaH₂PO₄ (pH7.0), protease inhibitor (Roche)], separating the soluble (supernatant) and insoluble (pellet) fractions by centrifugation (12,110 g, 20 min, 4° C.), binding to glutathione sepharose (GE healthcare), washing with lysis buffer and eluting with PreScission protease (GE Healthcare) in 1 mM DTT, 50 mM Na₂HPO₄/NaH₂PO₄ [pH7.4] and, finally, concentrating with Centricon filters (Millipore). Solubility was monitored by SDS PAGE, coomassie blue staining and/or immunoblotting as discussed above. […] GST and lysozyme were purchased from Sigma.

[2] = molecular target: the molecule itself; assay: sedimentation velocity analytical ultracentrifugation (self-association)
Method: Sedimentation Velocity Analytical Ultracentrifugation Experiments. A3G-2K3A was diluted to 0.15, 0.4, 0.8 or 1.2 mg/ml in a buffer containing 50 mM Na₂HPO₄/NaH₂PO₄ [pH7.4], 0.005% tween 20, 5 mM dithiothreitol and 50 μM ZnCl₂. Samples were then sedimented using a 4-hole rotor at 20° C. and 55,000 rpm. The rotor and cells were preequilibrated at 20° C. and the samples were kept on ice during protein preparation and dilution. Synthetic boundary cells were loaded with 430 μL of buffer and 420 μL of the appropriate sample solution. The cells were placed in the rotor and accelerated to 24,000 rpm while monitoring the transfer of the excess buffer in each cell. Subsequently, the rotor was stopped and then gently inverted to thoroughly mix the contents of the cells. The rotor was then equilibrated under vacuum at 20° C. and after a period of ˜1 hour at 20° C. the rotor was accelerated to 55,000 rpm. Interference scans were acquired at 1 minute intervals for 6 hours. The data for each loading concentration was analyzed using the program DcDt+ (version 2.0.7). See Philo, Anal. Biochem. 354, 238-246 (2006); and Philo, Anal. Biochem. 279, 151-163 (2000). The complete data set for A3G-2K3A was analyzed using Sedphat v4.4b using the model of a hybrid local continuous distribution and global discrete species. Schuck, Anal. Biochem. 320, 104-124 (2003). […]

Protein | binding result [1] | binding result [2]
A3G198-384 (enzyme, also called CTD) DPPTFTFNFNNEPWVRGRHETYLCYEVERMHNDTWVLLNQRRGFLCNQAPHKHGFLEGRHAELCFLDVIPFWKLDLDQDYRVTCFTSWSPCFSCAQEMAKFISKNKHVSLCIFTARIYDDQGRCQEGLRTLAEAGAKISIMTYSEFKHCWDTFVDHQGCPFQPWDGLDEHSQDLSGRLRAILQNQEN | no binding (tested: 1 mg (approx. 1 mL)) | 
A3G-2K3A (enzyme, released from the GST fusion with PreScission protease) DPPTFTFNFNNEPWVRGRHETYLCYEVERMHNDTWVKLNQRRGFLANQAPHKHGFLEGRHAELCFLDVIPFWKLDLDQDYRVTCFTSWSPCFSCAQEMAKFISKNKHVSLCIKTARIYDDQGRAQEGLRTLAEAGAKISIMTYSEFKHCWDTFVDHQGAPFQPWDGLDEHSQDLSGRLRAILQNQEN |  | no binding (tested: 0.15, 0.4, 0.8 or 1.2 mg/ml)
